Values quoted from earlier work as cited in patent publication US7759315B2, “Treatment of inflammatory conditions of the intestine” (CSL Behring AG, priority 2005, dated 2010).
Non-standard residues stand in square brackets, D forms with d. No end group written: not given here. Nal = naphthylalanine (source code Z); Aib = CC(C)(N)C(=O)O

Assays:
LCAT = biological target: T1, LCAT (Homo sapiens, UniProt P04180)
T1 sequence (P04180 25-440): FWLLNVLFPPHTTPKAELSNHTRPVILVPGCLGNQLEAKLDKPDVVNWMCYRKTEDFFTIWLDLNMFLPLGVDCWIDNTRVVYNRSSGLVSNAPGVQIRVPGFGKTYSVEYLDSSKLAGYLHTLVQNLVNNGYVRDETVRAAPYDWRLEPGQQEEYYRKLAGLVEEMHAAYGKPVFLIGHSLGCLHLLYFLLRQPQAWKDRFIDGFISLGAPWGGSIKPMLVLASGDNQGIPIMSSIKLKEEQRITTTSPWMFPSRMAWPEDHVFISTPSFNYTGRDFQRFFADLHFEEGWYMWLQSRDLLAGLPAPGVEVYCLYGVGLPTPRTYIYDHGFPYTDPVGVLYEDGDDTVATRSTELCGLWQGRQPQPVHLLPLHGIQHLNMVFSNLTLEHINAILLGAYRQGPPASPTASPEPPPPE

[1] = percent helicity; for He (%): micelles

Row | Substance | ACTIVITY (%) LCAT (LCAT) | He (%) [1] | He (%) SUVs ([1]; SUVs) | He (%) free ([1]; free peptide)
1 | LDDLLQKWAEAFNQLLKK [Peptide 237, Id-3 peptide (Labeur et al., 1997), reference compound] | 11% | 66% | – | –
2 | PAADAFREAANEAAEAAKQKAK [Peptide 105] | 1% | 28% | – | –
3 | PLLDLFRELLEELKQKLK* (not fully specified (N-terminus, C-terminus); printed as PLLDLFRELLEELKQKLK*) [Peptide 197] | 81% | 70% | – | –
4 | PLLELLKELLQELLEALKQKLK [Peptide 36] | 31% | 100% | – | –
5 | PVLDAFRELLEALAQLKK [Peptide 223] | 8% | 56% | – | –
6 | PVLDEFREKLNEALEALKQKLK [Peptide 94, [A^13]-Consensus 22-mer peptide (Anantharamaiah et al., 1990), reference compound] | 5% | 70% | – | –
7 | PVLDEFREKLNEPLEALKQKLK [Peptide 113] | 0% | 22% | – | –
8 | PVLDEFREKLNERLEALKQKLK [Peptide 109, [R^13]-Consensus 22-mer peptide (Anantharamaiah et al., 1990), reference compound] | 0% | 45% | – | –
9 | PVLDEFREKLNEXLEALKQKLK (PVLDEFREKLNE[Aib]LEALKQKLK; not fully specified (C-terminus)) [Peptide 45] | 24% | 84% | 25% | 24%
10 | PVLDEFREKLNEXWEALKQKLK (PVLDEFREKLNE[Aib]WEALKQKLK; not fully specified (C-terminus)) [Peptide 42] | 25% | 74% | – | –
11 | PVLDEFRELLFEXLEALKQKLK (PVLDEFRELLFE[Aib]LEALKQKLK; not fully specified (C-terminus)) [Peptide 76] | 9% | 88% | – | –
12 | PVLDEFRELLNEXLEALKQKLK (PVLDEFRELLNE[Aib]LEALKQKLK; not fully specified (C-terminus)) [Peptide 91] | 6% | 100% | – | –
13 | PVLDEFRELLYEXLEALKQKLK (PVLDEFRELLYE[Aib]LEALKQKLK; not fully specified (C-terminus)) [Peptide 70] | 12% | 78% | – | –
14 | PVLDEWREKLNEXLEALKQKLK (PVLDEWREKLNE[Aib]LEALKQKLK; not fully specified (C-terminus)) [Peptide 62] | 16% | 85% | – | –
15 | PVLDFFRELLNEXLEALKQKLK (PVLDFFRELLNE[Aib]LEALKQKLK; not fully specified (C-terminus)) [Peptide 25] | 51% | 82% | – | –
16 | PVLDLFKELLNELLEALKQKLK [Peptide 7] | 83% | 89% | – | –
17 | PVLDLFLELLNEXLEALKQKLK (PVLDLFLELLNE[Aib]LEALKQKLK; not fully specified (C-terminus)) [Peptide 31] | 34% | 98% | – | –
18 | PVLDLFNELLRELLEALQKKLK [Peptide 40] | 25% | 84% | – | –
19 | PVLDLFREKLNEXLEALKQKLK (PVLDLFREKLNE[Aib]LEALKQKLK; not fully specified (C-terminus)) [Peptide 46] | 23% | 86% | – | –
20 | PVLDLFRELLEELKQKLK [Peptide 210] | 46% | 63% | – | –
21 | PVLDLFRELLEELKQKLK* (not fully specified (N-terminus, C-terminus); printed as PVLDLFRELLEELKQKLK*) [Peptide 193] | 96% | 88% | – | –
22 | PVLDLFRELLEELLKALKKKLK [Peptide 39] | 25% | 69% | – | –
23 | PVLDLFRELLEELQKKLK [Peptide 220] | 22% | 64% | – | –
24 | PVLDLFRELLEEWKQKLK* (not fully specified (N-terminus, C-terminus); printed as PVLDLFRELLEEWKQKLK*) [Peptide 215] | 38% | 63% | – | –
25 | PVLDLFRELLELLKQKLK [Peptide 217] | 30% | 78% | – | –

Row | Substance | ACTIVITY (%) LCAT (LCAT) | He (%) [1] | He (%) SUVs ([1]; SUVs) | He (%) free ([1]; free peptide)
26 | PVLDLFRELLNEGLEALKQKLK [Peptide 8] | 83% | 90% | – | –
27 | PVLDLFRELLNELLEALKQKLK [Peptide 4] | 93% | 95% | – | –
28 | PVLDLFRELLNELLEALKQKLK^† [Peptide 30] | 38% | 90% | – | –
29 | PVLDLFRELLNELLEALKQ~~~ [Peptide 60] | 16% | 83% | – | –
30 | PVLDLFRELLNELLEAZKQKLK (PVLDLFRELLNELLEA[Nal]KQKLK; not fully specified (C-terminus)) [Peptide 10] | 79% | 87% | – | –
31 | PVLDLFRELLNELLEWLKQKLK [Peptide 3] | 98% | 95% | – | –
32 | PVLDLFRELLNELLEZLKQKLK (PVLDLFRELLNELLE[Nal]LKQKLK; not fully specified (C-terminus)) [Peptide 1] | 120% | 85% | – | –
33 | PVLDLFRELLNELLQKLK [Peptide 209] | 47% | 71% | – | –
34 | PVLDLFRELLNELWEALKQKLK [Peptide 28] | 40% | 98% | – | –
35 | PVLDLFRELLNELZEALKQKLK (PVLDLFRELLNEL[Nal]EALKQKLK; not fully specified (C-terminus)) [Peptide 27] | 44% | 92% | – | –
36 | PVLDLFRELLNEWLEALKQKLK [Peptide 54] | 19% | 71% | – | –
37 | PVLDLFRELLNEXLEALKQKLK (PVLDLFRELLNE[Aib]LEALKQKLK; not fully specified (C-terminus)) [Peptide 6] | 80% | 93% | – | –
38 | PVLDLFRELLNEXLEAWKQKLK (PVLDLFRELLNE[Aib]LEAWKQKLK; not fully specified (C-terminus)) [Peptide 38] | 29% | 49% | – | –
39 | PVLDLFRELLNEXLWALKQKLK (PVLDLFRELLNE[Aib]LWALKQKLK; not fully specified (C-terminus)) [Peptide 72] | 11% | sp | – | –
40 | PVLDLFRELLNLXLEALKQKLK (PVLDLFRELLNL[Aib]LEALKQKLK; not fully specified (C-terminus)) [Peptide 95] | 5% | sp | – | –
41 | PVLDLFRELLNWXLEALKQKLK (PVLDLFRELLNW[Aib]LEALKQKLK; not fully specified (C-terminus)) [Peptide 101] | 2% | sp | – | –
42 | PVLDLFRELLWEXLEALKQKLK (PVLDLFRELLWE[Aib]LEALKQKLK; not fully specified (C-terminus)) [Peptide 50] | 21% | 84% | – | –
43 | PVLDLFRELWEELKQKLK* (not fully specified (N-terminus, C-terminus); printed as PVLDLFRELWEELKQKLK*) [Peptide 199] | 76% | 77% | – | –
44 | PVLDLFRELWNELLEALKQKLK [Peptide 15] | 60% | 60% | – | –
45 | PVLDLFREWLNELLEALKQKLK [Peptide 37] | 29% | 75% | – | –
46 | PVLDLFRNLLEELLEALQKKLK [Peptide 66] | 15% | 82% | – | –
47 | PVLDLFRNLLEKLLEALEQKLK [Peptide 49] | 22% | 65% | – | –
48 | PVLDLFRWLLNEXLEALKQKLK (PVLDLFRWLLNE[Aib]LEALKQKLK; not fully specified (C-terminus)) [Peptide 108] | 0% | 55% | – | –
49 | PVLDLFWELLNEXLEALKQKLK (PVLDLFWELLNE[Aib]LEALKQKLK; not fully specified (C-terminus)) [Peptide 51] | 20% | 82% | – | –
